{
  "source": "paper PMC2116304",
  "about": "(The Journal of Cell Biology, 1990)",
  "molecules": {"B1": {"name": "excess (class II-unassociated) invariant chain from Swei B-LCL (natural protein, human, UniProt P04233-2 1-232, looked up)", "chain": "MHRRRSRSCREDQKPVMDDQRDLISNNEQLPMLGRRPGAPESKCSRGALYTGFSILVTLLLAGQATTAYFLYQQQGRLDKLTVTSQNLQLENLRMKLPKPPKPVSKMRMATPLLMQALPMGALPQGPMQNATKYGNMTEDHVMHLLQNADPLKVYPPLKGSFPENLRHLKNTMETIDWKVFESWMHHWLLFEMSRHSLEQKPTDAPPKESLELEDPSSGLGVTKQDLGPVPM", "modifications": "[35S]methionine-labelled; N-linked glycans, endo H-sensitive"}, "B2": {"name": "invariant chain (from the class II-negative hybrid cell line 174xCEM.T2) (natural protein, human, UniProt P04233-2 1-232, looked up)", "chain": "MHRRRSRSCREDQKPVMDDQRDLISNNEQLPMLGRRPGAPESKCSRGALYTGFSILVTLLLAGQATTAYFLYQQQGRLDKLTVTSQNLQLENLRMKLPKPPKPVSKMRMATPLLMQALPMGALPQGPMQNATKYGNMTEDHVMHLLQNADPLKVYPPLKGSFPENLRHLKNTMETIDWKVFESWMHHWLLFEMSRHSLEQKPTDAPPKESLELEDPSSGLGVTKQDLGPVPM", "modifications": "N-linked glycans, endo H-sensitive; [35S]methionine-labelled in the affinity-purified samples"}},
  "key": {"[1]": {"biological_target": "K3 proteolytic fragment of the invariant chain (18,000 D, lumenal) (human)", "experiment": "cross-linking"}, "SEC": {"biological_target": "the molecule itself", "experiment": "SEC"}, "[2]": {"biological_target": "the molecule itself", "experiment": "non-reducing SDS-PAGE without cross-linker"}, "cross-linking": {"biological_target": "the molecule itself", "experiment": "cross-linking"}},
  "note": "Values joined by “and” are separate entries in the source; they are usually repeats but may differ in a detail not shown here. Identical values can stand only once.",
  "data": [
    {"molecule": "K3 proteolytic fragment of the invariant chain (18,000 D, lumenal) (domain or fragment)", "values": [
      {"measurement": "stoichiometry N", "setting": "[1]", "value": 3}
    ]},
    {"molecule": "B1", "values": [
      {"measurement": "stoichiometry N", "setting": "SEC", "value": 3}
    ]},
    {"molecule": "B2", "values": [
      {"measurement": "stoichiometry N", "setting": "[2]", "value": 2},
      {"measurement": "stoichiometry N", "setting": "cross-linking", "value": "3 and 4 and 6"}
    ]}
  ]
}
